Paper PMC6588694

Biological target: concanavalin A
Experiment: SEC; Superdex 200 Increase 10/300 GL, 50 mM Tris, 150 mM NaCl, 100 mM glucose; molecular weight calibrated with a gel filtration calibration kit

Substance: concanavalin A (natural protein)
- stoichiometry N: 4
